Test results taken from patent publication US20120045773A1, “CELL ADHESION INHIBITOR AND APPLICATIONS THEREOF” (University of Miyazaki, priority 2009, published 2012).

Tests used:
AML1 cell line [1] = test: Drug resistance assay by WST method with or without osteoblast cell in the medium; assay type: cell-based, human
Protocol: Effect of the presence of osteoblast cell on the drug resistance of AML1 cell line derived from human acute myelocytic leukemia (AML) was examined.
Specifically, by WST method, in which water-soluble formazan was produced, viability of AML1 cell line was evaluated under the presence of VP16 (5 μM), a kind of etoposide-based anticancer drug, between the cases of presence and absence of osteoblast cell in culture medium. It should be noted that AML1 cell line is fixed to medium plate through osteoblast cell when the osteoblast cell exists in the medium.
In addition, effect of the presence of the osteoblast cell on the drug resistance of AML1 cell line was examined, when Ara-C, a kind of anticancer drug of […] was used in place of VP16 as the anticancer drug. Specifically, the drug resistance assay was carried out by WST method using the same procedures as the above-mentioned method excepting that Ara-C (1 μg/mL) was used in place of VP16 as the anticancer drug.
Drug resistance assay by WST method was carried out by the same procedures as the above-mentioned Reference Example 5 (in the presence of Ara-C) using each of the above-established AML1 (shEVI1) cell and AML1 (shLuc) cell in place of AML1 cell line.

HNT34 cell line [2] = test: Cellular adhesiveness assay of HNT34 cell line; assay type: cell-based, human; settings: HNT34(shEVI1) compared with HNT34(shLuc); FIG. 6
Protocol: (§1) Specifically, 100 μL of 40 times-diluted growth factor reduced matrigel (produced by BD Biosciences) with RPMI1640/10% FCS was added to each well of a 96-well plate, incubated at 4° C. for 6 hours, and washed twice with PBS. The above-mentioned cell was added to each of the wells at 10000 cells/100 μL. After that, the cell was incubated at 37° C. for 2 hours and washed three times with PBS. After that, 90 μL of RPMI1640/10% FCS and 10 μL of Cell counting kit 8 (produced by DOJINDO Laboratories) were added to each well, incubated at 37° C. for 30 minutes and measured at wavelength of 450 nm by a spectrophotometer.
The cellular adhesiveness was evaluated for the above-mentioned established HNT34(shEVI1) and HNT34(shLuc) by the same method as the above-mentioned Example 1-2.

[3] = test system: genes of various integrin families; test: Expression of integrin family genes by PCR in HNT34 cell line transfected with shEVI1; assay type: cell-based, human; settings: HNT34(shEVI1) vs HNT34(shLuc); transfection with Nucleofector; FIG. 5
Description: (§2) EVI1 expression-inhibited HNT34 cell line (hereinafter, also called “HNT34(shEVI1)”) was established by the transfection of shEVI1, which was used in the above-mentioned Example 1-1, using Nucleofector (produced by Amaxa Biosystems), a gene transfection system, into HNT34 cell line derived from human. In the same way, the cell line transfected with shLuc (hereinafter, also called “HNT34 (shLuc)”) was established. For these cell lines, expression of EVI1 gene and genes of various integrin families were confirmed by the same method as in the Example 1.

EVI1 gene [4] = test: EVI1 gene expression by PCR in HNT34 cell line transfected with shEVI1; assay type: cell-based, human; settings: HNT34(shEVI1) vs HNT34(shLuc); transfection with Nucleofector; FIG. 5
Description: as §2

EVI1 gene [5] = test: EVI1 gene expression by PCR and agarose gel electrophoresis in AML1 cells transduced with shEVI1; assay type: cell-based, human
Description: (§3) EVI1 expression-inhibited AML1 cell line (hereinafter, also called “AML1 (shEVI1)”) was established by the transfection of shEVI1, which is a short hairpin RNA (shRNA) having cleavage activity of mRNA of EVI1 gene, into the AML1 cell line, which was originated from human acute myelocytic leukemia (AML).
Specifically, at first, shEVI1 (sense strand: […] UUG (SEQ ID No: 7) and antisense strand: […] GAGA (SEQ ID No: 8), which had been disclosed in Oncogene, 2006 Jun. 15; 25 (25): 3565-75), were inserted into pSIREN-RetroQ-ZsGreen vector of RNAi-Ready pSIREN-RetroQ-ZsGreen (produced by Clonetech Laboratories, Inc.) at BamH1-EcoR1 site to prepare a shEVI1 retrovector. […] It should be noted that as a control cell, the cell (hereinafter, also called “AML1 (shLuc)”) was established by transfecting a control vector (shLuc) attached to RNAi-Ready pSIREN-RetroQ-ZsGreen (produced by Clonetech Laboratories, Inc.) by the same method.
Each cell cultured steadily of the established above mentioned AML1(shEVI1) and AML1(shLuc) was recovered by centrifugation, the medium was removed, and 1 ml of Trizol™ (produced by Invitrogen Corp.) was added. […] The resultant RNA was dissolved in RNase-free water, the amount of RNA was measured by spectrophotometer at wavelength of 260 nm, and 1 μg of the RNA was transformed to cDNA with reverse transcriptase (superscript 3, produced by Invitrogen Corp.). […]

[6] = test system: various integrin families including ITGA6 gene and ITGB4 gene; test: Expression of integrin family and VE cadherin genes by PCR and agarose gel electrophoresis in AML1 cells transduced with shEVI1; assay type: cell-based, human
Description: as §3
Specifically, at first, shEVI1 (sense strand: […] UUG (SEQ ID No: 7) and antisense strand: […] GAGA (SEQ ID No: 8), which had been disclosed in Oncogene, 2006 Jun. 15; 25 (25): 3565-75), were inserted into pSIREN-RetroQ-ZsGreen vector of RNAi-Ready pSIREN-RetroQ-ZsGreen (produced by Clonetech Laboratories, Inc.) at BamH1-EcoR1 site to prepare a shEVI1 retrovector. After that, 10 μg of the shEVI1 retrovector and 10 μg of p10A1 packaging vector (produced by Clonetech Laboratories, Inc.) were transduced to 293T cell using Hylimax liposome reagent (produced by DOJINDO Laboratories) to prepare a retrovirus containing shEVI1. After that, AML1 (shEVI1) was established by infecting the obtained retrovirus into 10^5 of AML1 cells. It should be noted that as a control cell, the cell (hereinafter, also called “AML1 (shLuc)”) was established by transfecting a control vector (shLuc) attached to RNAi-Ready pSIREN-RetroQ-ZsGreen (produced by Clonetech Laboratories, Inc.) by the same method.
Each cell cultured steadily of the established above mentioned AML1(shEVI1) and AML1(shLuc) was recovered by centrifugation, the medium was removed, and 1 ml of Trizol™ (produced by Invitrogen Corp.) was added. After that, 500 μL of chloroform was added, separated by centrifugation at 15000 rpm for 15 minutes, the upper layer was transferred to another tube, 500 μL of 2-propanol was added, separated by centrifugation at 15000 rpm for 10 minutes, and washed with 80% ethanol. The resultant RNA was dissolved in RNase-free water, the amount of RNA was measured by spectrophotometer at wavelength of 260 nm, and 1 μg of the RNA was transformed to cDNA with reverse transcriptase (superscript 3, produced by Invitrogen Corp.).
Using each of the resultant cDNA as a template, the cDNA was amplified by PCR method, and expression level of the genes was confirmed by agarose gel electrophoresis. Specifically, TaKaRa Extaq (produced by TaKaRaBio Inc.) was used as the polymerase, and PCR Thermal Cycler DICE (produced by TaKaRa Bio Inc.) was used as the PCR equipment. In addition, each cDNA was corrected by β-actin before the amplification by PCR. Base sequences of the primers used in the PCR were as follows;
The ones disclosed in Journal of Biomedical Science (2005)12:803-813.

AML1 cell = test: Accumulation of AML1 cells in thighbone bone marrow of transplanted NOG mouse (FACS); assay type: in vivo; settings: 6 million AML1(shEVI1) cells injected into NOG mouse, bone marrow recovered 1 month after, control AML1(shLuc) printed as (330), FIG. 25
Protocol: The above-established AML1(shEVI1) cell was transplanted into NOG Mouse™, and accumulation of the AML1(shEVI1) cell into the murine thighbone was examined after the transplantation. Here, NOG mouse is a severe immunodeficient mouse suitable for the preparation of humanized model mouse that is available from the Central Institute for Experimental Animals.
Specifically, 6 million of each of the AML1 (shLuc) cell and the AML1 (shEVI1) cell was injected into NOG mouse through venous artery, and bone marrow of the thighbone was recovered 1 month after. After that, a graph representing the fluorescence intensity in the horizontal axis was prepared by FACS, and analysis was made how frequently cells were distributed from low intensity (peak near to 0) to high fluorescence intensity.

HNT34 cell line [7] = test: Cellular proliferative ability assay of HNT34 cell line (Cell counting kit 8); assay type: cell-based, human; settings: HNT34(shEVI1) vs HNT34(shLuc) control cell line; FIG. 7
Protocol: Cellular proliferative ability was evaluated for the above-mentioned established HNT34(shEVI1) and HNT34(shLuc).
Specifically, cells diluted with RPMI1640/10% FCS were added to each well of a 96-well plate at 1000 cells/100 μL. After that, the cell suspension was incubated at 37° C. for an appropriate time, each 10 μL of Cell counting kit 8 (produced by DOJINDO Laboratories) was added, incubated at 37° C. for 30 minutes, and measurement was carried out at wavelength of 450 nm using a spectrophotometer.

ITGB4 gene = ITGB4 gene expression by PCR in AML1 cell line transfected with shITGB4; assay type: cell-based, human; settings: AML1(shITGB4) compared with AML1(shLuc); FIG. 9
Description: ITGB4 expression-inhibited AML1 cell line (hereinafter also called “AML1(shITGB4)”) was established by the transfection of shRNA having an activity of cleaving mRNA of ITGB4 gene (hereinafter also called “shITGB4”) into AML1 cell line by the same method as the above-mentioned Example 2-1. It should be noted that the base sequences of the used shITGB4 were as follows.
Further, expression of ITGB4 gene in AML1 (shITGB4) was confirmed by the same method as the above-mentioned Example 1-1. As a result, as shown in the results of PCR agarose gel electrophoresis in FIG. 9, expression of ITGB4 gene was suppressed in AML1(shITGB4) compared with AML1(shLuc).

AML1 cell line [8] = test: Cellular adhesiveness assay of AML1 cell line on matrigel-coated 96-well plate (Cell counting kit 8); assay type: cell-based, human; settings: AML1(shITGB4) relative to AML1(shLuc); FIG. 8
Protocol: Cellular adhesiveness was evaluated for the above-established AML1(shEVI1) (triplicate) and AML1(shLuc).
as §1
Cellular adhesiveness was evaluated for the established above-mentioned AML1(shITGB4) and AML1(shLuc) by the same method as the above-mentioned Example 1-2.

[9] = AML1(shEVI1) compared with AML1(shLuc), FIG. 1
[10] = triplicated experiment for AML1(shEVI1), AML1 cell not administered with shLuc or shEVI1 added as a control, FIG. 2

Molecule: COc1cc([C@@H]2c3cc4c(cc3[C@@H](O[C@@H]3O[C@@H]5CO[C@@H](C)O[C@H]5[C@H](O)[C@H]3O)[C@H]3COC(=O)[C@H]23)OCO4)cc(OC)c1O [VP16]
- viability of AML1 cell line in the presence of the drug, osteoblast cell in the medium compared with none (AML1 cell line [1]; VP16 (5 μM), FIG. 18): increase significantly

Molecule: Nc1ccn([C@@H]2O[C@H](CO)[C@@H](O)[C@@H]2O)c(=O)n1 [Ara-C]
- viability of AML1 cell line in the presence of the drug, osteoblast cell in the medium compared with none (AML1 cell line [1]; Ara-C (1 μg/mL), FIG. 19): increase significantly

B1: shEVI1: short hairpin RNA (shRNA) having cleavage activity of mRNA of EVI1 gene; SEQ ID No: 7 and SEQ ID No: 8 (nucleic acid)
chain 1: GAUCUCUCUAAGGCUGAACUAGCAGUUCAAGAGACUGCUAGUUCAGCCUUAGAUUUUUUG
chain 2: AAUUCAAAAAAUCUAAGGCUGAACUAGCAGUCUCUUGAACUGCUAGUUCAGCCUUAGAGA
- decrease of cellular adhesiveness (ratio of the number of adhered cells to the number of total cells) (HNT34 cell line [2]): about 76%
- expression of genes of various integrin families [3]: inhibited
- expression of the EVI1 gene (EVI1 gene [4]): inhibited
- EVI1 gene expression (EVI1 gene [5]; [9]): inhibited
- EVI1 gene expression (EVI1 gene [5]; [10]): inhibition
- drug resistance to Ara-C gained by the existence of osteoblast (AML1 cell line [1]; AML1(shEVI1) vs AML1(shLuc), in the presence of Ara-C, FIG. 20): disappeared
- expression of VE cadoherin gene [6, 9]: inhibited
- gene expressions of various integrin families including ITGA6 gene and ITGB4 gene [6, 9]: inhibition
- expression of VE cadherin genes [6, 10]: inhibition
- expression of various integrin families [6, 10]: inhibition
- abundance rate of transplanted cells in bone marrow of the thighbone (AML1 cell): 9.5%
- cellular proliferation ability (HNT34 cell line [7]): no significant difference

B2: shITGB4: shRNA having an activity of cleaving mRNA of ITGB4 gene; SEQ ID No: 13 and SEQ ID No: 14 (nucleic acid)
chain 1: GAUCUCCGAGUUGCGUGGGGUGUGUCUUCAAGAGAGACACACUCCGUGCAGCUCUUUUUG
chain 2: AAUUCAAAAAGAGCUGCACGGAGUGUGUCUCUCUUGAAGACACACCCCACGCAACUCGGA
- expression of ITGB4 gene (ITGB4 gene): suppressed
- cellular adhesiveness (ratio of the number of adhered cells to the number of total cells) (AML1 cell line [8]): decrease nearly to zero
